# Results taken from US20030032157A1, “Polypeptides interactive with Bcl-XL” (priority 2001, published 2003).
# B1: SEQ ID NO 13 (peptide)
# chain: RGAVFSQDKDVVQEATKVLRNAADNFYINDR
# notes: mRNA display clone from a known polypeptide
# B2: K-ras oncogene cluster polypeptide (peptide)
# chain: MDTIKGFDLITNFQVVADALNISLLPNPLATA
# notes: Selected clone derived from the 3' UTR of the parent mRNA; not further characterized
# B3: SEQ ID NO 19 (peptide)
# chain: GLREESEEYMAAADEYNRLKQVKQPA
# notes: as for B1
# B4: clone w75 (peptide)
# chain: RTLQPRLLQNQQQHLPALPIWFLLQWLRLHPL
# notes: mRNA display clone from a hypothetical or unknown polypeptide
# B5: L-plastin cluster polypeptide (peptide)
# chain: SGLRKPTCGSSQR
# notes: as for B2
# B6: SEQ ID NO 22 (peptide)
# chain: ARGDFAQAAQQLWLALRALGRPLPTSH
# notes: as for B1
# B7: SEQ ID NO 46 (peptide)
# chain: AAMLLDRRGTECDLWINEMSLLHKIVQDVYGTPHPPHS
# notes: as for B4
# B8: SEQ ID NO 29 (peptide)
# chain: AGVFSAEPSPFPQTRRSMVFARHLREVGDEFRSRHLNSTDDADE
# notes: as for B4
# B9: SEQ ID NO 14 (peptide)
# chain: TGTGAPRFIKEVQELNSALHQSDLIDIYRTLHP
# notes: as for B1
# B10: SEQ ID NO 49 (peptide)
# chain: DWQVLLGKLLWKIDNPGI
# notes: as for B4
# B11: SEQ ID NO 40 (peptide)
# chain: SSQALRIHQWLHLFSDFTST
# notes: as for B4
# B12: SEQ ID NO 27 (peptide)
# chain: LRLNTTVWPTIITPILLTLFLITNRLITTR
# notes: as for B1
# B13: SEQ ID NO 17 (peptide)
# chain: LFTILLTLWTMRCSSTPSG
# notes: as for B1
# B14: SEQ ID NO 24 (peptide)
# chain: GFLAAEQDIREEIRKVVQSLEQTAREVLTLLQG
# notes: as for B1
# B15: SEQ ID NO 16 (peptide)
# chain: TYWNLLPPKRPIKEVLTDIFAKVLEKGWVDSRS
# notes: as for B1
# B16: SEQ ID NO 47 (peptide)
# chain: PWQYKPIADLYRGRESRPSAPR
# notes: as for B4
# B17: arsenate resistance protein cluster polypeptide (peptide)
# chain: AGTQPLILAQFMRVGGDELLHFLLW
# notes: Selected clone with insert in reversed orientation relative to the parent mRNA; not further characterized
# B18: SEQ ID NO 48 (peptide)
# chain: LFSVLLRYLADNFLPGGS
# notes: as for B4
# B19: SEQ ID NO 21 (peptide)
# chain: WERIEERLAYIADHLGFSWTELARAL
# notes: as for B1
# B20: SEQ ID NO 36 (peptide)
# chain: ILTSPWTTSSGLWPRLQKAAEAFKQLNQP
# notes: as for B4
# B21: transforming growth factor cluster polypeptide (peptide)
# chain: FVRSVGWRLQNIGDDMDHAICGHDVRLG
# notes: as for B17
# B22: SEQ ID NO 39 (peptide)
# chain: GLAKKSKRNPANLTPP
# notes: as for B4
# B23: SEQ ID NO 45 (peptide)
# chain: LALAYYSSRQYASALKHIAEIIERGIRQH
# notes: as for B4
# B24: cDNA FLJ20617 cluster polypeptide (peptide)
# chain: GSLTHHINNIKPSSTR
# notes: Selected clone translated from the incorrect reading frame; not further characterized
# B25: SEQ ID NO 28 (peptide)
# chain: TLYLKLTALAVTFLGLLTALDLNYPT
# notes: as for B1
# B26: SEQ ID NO 38 (peptide)
# chain: MAVIINELSQRDSCGPLKISLNNKILVYGNLFSSFTP
# notes: as for B4
# B27: SEQ ID NO 23 (peptide)
# chain: GSSKDLAKHIQVVCDGMDLTPKIHDLKPQC
# notes: as for B1
# B28: SEQ ID NO 31 (peptide)
# chain: MRDLPGHYYETLKFLVGHLKTIADHR
# notes: as for B4
# B29: SEQ ID NO 42 (peptide)
# chain: GVSEAEGTFPLSTFLLGIASRLRSVA
# notes: as for B4
# B30: SEQ ID NO 43 (peptide)
# chain: RAPRFIKQILLDLKREIDFNVRLVEYFNPLS
# notes: as for B4
# B31: MYBPC3 cluster polypeptide (peptide)
# chain: EANRKQPKPNNSSTAYYNFTGVSILPSYKP
# notes: as for B2
# B32: SEQ ID NO 32 (peptide)
# chain: CGGRMEDIPCSRVGHIYRKYVPYKVPAGVSLARNLKRVADWM
# notes: as for B4
# B33: SEQ ID NO 34 (peptide)
# chain: TSTLPHIRRTR
# notes: as for B4
# B34: SEQ ID NO 26 (peptide)
# chain: ANLLLLMVPILIAMAFLMLTERKILGYIQPR
# notes: as for B1
# B35: SEQ ID NO 50 (peptide)
# chain: GAMEREWAMFLRAASSRIRGGV
# notes: as for B4
# B36: SEQ ID NO 30 (peptide)
# chain: GLKLATVAASMDRVPKVTPSSAISSIARENHEPERLGLNGIAETT
# notes: as for B4
# B37: SEQ ID NO 15 (peptide)
# chain: SNELTRAVEELHKLLKEARE
# notes: as for B1
# B38: UDP glucoronosyl transferase 2B4 precursor cluster polypeptide (peptide)
# chain: VSCWPSYLKYPLSTASASLLATQLKSIA
# notes: as for B24
# B39: SEQ ID NO 18 (peptide)
# chain: AGEDMEISVKELRTILNRIISKHKDLRT
# notes: as for B1
# B40: lysosomal pepstatin insensitive protease cluster polypeptide (peptide)
# chain: ATWMKTLQGLLDRIQAFPSSPH
# notes: as for B2
# Molecular target: T1, human Bcl-XL-GST fusion protein (human, UniProt P08515 1-218 = GST; Q07817 1-211)
# T1 construct: Made in E. coli, immobilized on glutathione Sepharose beads; whole entry named; also called Bcl-XL-glutathione S-transferase (GST) fusion protein; GST-BCL-XL
# Assay: mRNA display selection on immobilized Bcl-XL-GST
# Method: Detection of a polypeptide binding to a Bcl-XL-glutathione S-transferase (GST) fusion protein was carried out as follows. Twenty microliters of glutathione Sepharose 4B slurry (AP Biotech) was aliquoted to a microcentrifuge tube and washed with PBS. The Bcl-XL-GST fusion protein (60 μg), prepared as describe above, was added and allowed to bind to the Sepharose beads for 1 hr at 4° C. The beads were then re-washed in selection buffer (50 mM Tris-HCL pH 7.5, 150 mM KCl, 0.05% Triton X-100, 0.5 mg/ml BSA, and 0.1 mg/ml salmon sperm DNA). The Bcl-XL-GST beads were resuspended in 100 μl of selection buffer (approximately 11.5 μM Bcl-XL) and ³⁵S-labeled mRNA display construct or free peptide was added (approximately 10-60 nM) and incubated on a rotator for 1 hr at 4° C. The reaction was then transferred to a microcentrifuge column (BioRad) and unbound mRNA display constructs or free peptides were removed by a 10 sec spin at 1,000 rpm. The Sepharose beads were then washed three times with 500 μl of selection buffer. The extent of binding between the Bcl-XL-GST fusion protein and the mRNA display constructs or free peptides was determined by scintillation counting each fraction, including the recovered beads.
# A human Bcl-XL-GST fusion protein was immobilized on Sepharose beads as described above for the binding assay and incubated with the mRNA display library. For the first round of selection, the input was approximately 0.06 pmol of each of the four source labeled libraries from human tissues (kidney, liver, bone marrow, and brain), which were mixed prior to selection. For subsequent rounds of selection, the input of each of the four source labeled libraries ranged from 0.25 to 0.92 pmol in total. After washing the beads of any unbound nucleic acid-protein fusion library members, the cDNA strand of the bound fusions were recovered in three elutions with 100 μl of 0.1N KOH. Eluates were subsequently neutralized by the addition of 2 μl of 1N Tris-HCL pH 7 and 8 μl of 1N HCL. A small scale PCR optimization was performed with the eluate to determine the number of cycles required to produce a strong signal without overamplification (typically 18-28 cycles). The library was then regenerated by PCR using the remainder of the eluate.
# T1 sequence (P08515 1-218, tags or fused parts left off): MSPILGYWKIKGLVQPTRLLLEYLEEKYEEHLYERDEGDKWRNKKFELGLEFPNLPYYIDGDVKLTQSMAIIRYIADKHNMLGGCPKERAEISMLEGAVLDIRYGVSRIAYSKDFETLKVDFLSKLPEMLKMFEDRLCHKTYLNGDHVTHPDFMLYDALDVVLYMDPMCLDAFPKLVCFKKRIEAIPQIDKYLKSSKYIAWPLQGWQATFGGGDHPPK
row,Binder,binding result
1,B1,binds
2,B2,binds
3,B3,binds
4,B4,binds
5,B5,binds
6,B6,binds
7,B7,binds
8,CREQAELTGLRLASLGLKFNKIVHSSMTRAIET [SEQ ID NO 53],binds
9,B8,binds
10,B9,binds
11,B10,binds
12,B11,binds
13,B12,binds
14,B13,binds
15,B14,binds
16,B15,binds
17,B16,binds
18,QRRGNEFQLRDLADAWDLSSRSRQRGWQMPNCRSRRGPG [SEQ ID NO 62],binds
19,B17,binds
20,VVDVPDFIVWLEEAVSDLHRAL [SEQ ID NO 61],binds
21,B18,binds
22,HAVVARLLHIGAIMFQRLDFIEQLSAPPA [SEQ ID NO 58],binds
23,GQGTLWGSGMEAWLATVLKALPWHPTYQLEP [SEQ ID NO 59],binds
24,B19,binds
25,B20,binds
26,B21,binds

row,Binder,binding result
1,B22,binds
2,B23,binds
3,B24,binds
4,B25,binds
5,B26,binds
6,IAQATKATIDKWNCIKLKIFYTSKKEAS [SEQ ID NO 60],binds
7,B27,binds
8,GTRISDMLKLIADTWQRNCCPA [SEQ ID NO 54],binds
9,B28,binds
10,B29,binds
11,VHNFGRHWGLPLSFLLNYPLFLSP [SEQ ID NO 51],binds
12,B30,binds
13,B31,binds
14,B32,binds
15,B33,binds
16,B34,binds
17,B35,binds
18,EQASVKYVILDMYRALLTLMNTSTAT [SEQ ID NO 55],binds
19,RPVSFCGAVWTLNRAIGRHFVRGSR [SEQ ID NO 57],binds
20,B36,binds
21,B37,binds
22,B38,binds
23,EDLESVLIRLINWAKGSPIP [SEQ ID NO 56],binds
24,B39,binds
25,B40,binds
26,ASMAPVGRDAETLQKQKETIKAFLKKLEALMASNDNANKT [SEQ ID NO 52],binds
